From patent publication US20130280276A1 (Daiichi Sankyo, published 2013)

B1: MOR09281 (antibody, human IgG2, lambda, V domains shown)
VH: QVQLVESGGGLVQPGGSLRLSCAASGFTFSNYWMSWVRQAPGKGLEWVSLISYSGSTTYYADSVKGRFTISRDNSKNTLYLQMNSLRAEDTAVYYCARDTPIGMDFWGQGTLVTVSS
VL: DIELTQPPSVSVAPGQIARISCSGDNLGSYYAYWYQQKPGQAPVLVIYGDNDRPSGIPERFSGSNSGNTATLTISGTQAEDEADYYCSSYDIVQPYVFGGGTKLTVLG
B2: MOR09892 (antibody, human IgG2, lambda, V domains shown)
VH: QVQLVESGGGLVQPGGSLRLSCAASGFTFSSYAMHWVRQAPGKGLEWVSYISYSGSNTYYADSVKGRFTISRDNSKNTLYLQMNSLRAEDTAVYYCARGWGGFDYWGQGTLVTVSS
VL: DIELTQPPSVSVAPGQTARISCSGDNLPNRYVHWYQQKPGQAPVLVIYDDNNRPSGIPERFSGSNSGNTATLTISGTQAEDEADYYCQSRDLHYSPVFGGGTKLTVLG
B3: MOR09898 (antibody, human IgG2, lambda, V domains shown)
VH: QVQLVESGGGLVQPGGSLRLSCAASGFTFSNYWMTWVRQAPGKGLEWVSFISYSGSTTYYADSVKGRFTISRDNSKNTLYLQMNSLRAEDTAVYYCAREGTSSMFDVWGQGTLVTVSS
VL: DIELTQPPSVSVAPGQTARISCSGDALRSYYASWYQQKPGQAPVLVIYDDNKRPSGIPERFSGSNSGNTATLTISGTQAEDEADYYCASFTYMSDFVFGGGTKLTVLG
B4: MOR10110 (antibody, human IgG2, lambda, V domains shown)
VH: QVQLVESGGGLVQPGGSLRLSCAASGFTFTNYAMNWVRQAPGKGLEWVSYISYSSSNTYYADSVKGRFTISRDNSKNTLYLQMNSLRAEDTAVYYCARGAGLGYDVWGQGTLVTVSS
VL: DIELTQPPSVSVAPGQTARISCSGDNLRSKYVYWYQQKPGQAPVLVIYDTNDRPSGIPERFSGSNSGNTATLTISGTQAEDEADYYCQTYDMTSQDVFGGGTKLTVLG

These binders were tested against mouse Siglec-15 (mouse) (assay: cell-based or functional assay).

Row | Binder | TRAP activity of mouse osteoclasts formed (RANKL-stimulated mouse bone marrow nonadherent cells) [ng/mL]
1 | B1 | ≥ 13
2 | B2 | ≥ 13
3 | B3 | ≥ 13
4 | B4 | ≥ 13
